# According to patent US20220089699A1 (AstraZeneca / MedImmune, published 2022):
# T1: biotinylated ClfA001 (Staphylococcus aureus)
# T1 chain: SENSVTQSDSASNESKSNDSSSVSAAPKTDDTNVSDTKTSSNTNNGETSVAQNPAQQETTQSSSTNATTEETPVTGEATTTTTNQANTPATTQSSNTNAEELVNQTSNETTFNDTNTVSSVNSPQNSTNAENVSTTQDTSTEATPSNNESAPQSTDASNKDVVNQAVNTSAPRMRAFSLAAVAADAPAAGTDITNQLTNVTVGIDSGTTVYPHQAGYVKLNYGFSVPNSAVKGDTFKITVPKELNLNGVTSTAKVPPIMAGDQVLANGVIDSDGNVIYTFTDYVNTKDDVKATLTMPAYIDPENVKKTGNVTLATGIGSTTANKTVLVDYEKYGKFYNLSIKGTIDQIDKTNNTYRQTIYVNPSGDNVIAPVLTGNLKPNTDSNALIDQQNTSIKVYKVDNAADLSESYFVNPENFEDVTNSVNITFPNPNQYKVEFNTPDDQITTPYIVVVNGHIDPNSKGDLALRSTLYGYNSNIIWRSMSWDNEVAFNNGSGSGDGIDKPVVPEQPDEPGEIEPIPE
# B1: SAR114 (antibody, V domains shown)
# VH: QVQLQESGPGLVKPSETLSLTCTVSGGSIQNSYWSWIRQPPGKGLEWIGYLYSSGRTNYTPSLKSRVTISVDTSKNQFSLKLSSVTAADTAVYYCARTHLGGFHYGGGFWFDPWGQGTLVTVSS
# VL: DIQMTQSPSSLSASVGDRVTITCRASQSITSYLNWYQQKPGKAPKLLIYASSSLQSGVPSRFSGSGSGTDFTLTISSLQPEDFATYYCQESYSTPPTFGQGTKVEIK
# notes: also called anti-ClfA mAb SAR114
# Molecular target: T1, biotinylated ClfA001
# Test: fibrinogen-binding inhibition ELISA: biotinylated ClfA001 (2 µg/ml) on a fibrinogen-coated plate, antibody titrated
binder,measurement,value
B1,IC50,3.02 µg/mL
